Measured values: the supplement of paper PMC9732359
± gives the uncertainty stated by the source.

Experiment: protein stability index of a GFP-peptide fusion (yeast GPS) (PSI 1-4); higher = more stable; sorted into four equal gates, so the index is relative within each strain
Summary of the method: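 For each peptide, the protein stability index sums the read frequency in every gate after multiplying it by the gate number. Read frequencies came from plasmids that were PCR-amplified from each gate and Illumina-sequenced, with reads assigned to strains by barcodes. The gates were four equal bins of GFP/Cherry fluorescence ratio applied to mid-log yeast in leucine-free medium carrying a pooled library of tiled 17-residue yeast protein peptides fused downstream of GFP on a Cherry-expressing plasmid.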

| Sequence | protein stability index (doa10∆) | protein stability index (pdr5∆) | protein stability index (san1∆) | protein stability index (ubr1∆) |
| --- | --- | --- | --- | --- |
| SPRNTYQCAMGKQAIGA [RET1] | 1.94 ± 0.14 | 2.57 ± 0.14 | 2.83 ± 0.15 |  |
| DINTVNTNLMNGVNVQI [GRR1] | 3.21 ± 0.097 | 3 ± 0.087 | 2.98 ± 0.074 | 3.06 ± 0.073 |
| DRVVSSDSLDIAQGIDL [SRP72] | 2.85 ± 0.069 | 2.6 ± 0.062 | 2.27 ± 0.079 | 3 ± 0.079 |
| RTHFKRMRFPPFDDDEP [PRP8] | 2.65 ± 0.042 | 3.03 ± 0.047 | 2.91 ± 0.044 | 2.77 ± 0.035 |
| LNTLLVTSADSNLKISL [SWI1] | 2.71 ± 0.078 | 2.9 ± 0.065 | 2.89 ± 0.054 | 2.52 ± 0.08 |
| KRVTKVKRLLFTIRGFK [MTW1] | 2.34 ± 0.057 | 2.52 ± 0.043 | 2.14 ± 0.057 | 2.54 ± 0.042 |
| LNSFAFELCSLGDKELW [YJR042W/NUP85] | 1.76 ± 0.22 | 1.32 ± 0.12 |  | 1.34 ± 0.092 |
| RTKFVRSLVREIAGLSP [RPL36A] | 2.59 ± 0.19 | 2.71 ± 0.19 | 2.85 ± 0.086 | 2.92 ± 0.09 |
| LDDITDSNTTEILTSVD [SIR4] | 3.26 ± 0.066 | 3.18 ± 0.072 | 2.94 ± 0.069 | 3.08 ± 0.065 |
| KSLDAETEAEEDHMLKK [RPO21] | 3.15 ± 0.29 | 2.56 ± 0.21 | 3.19 ± 0.1 | 3.16 ± 0.094 |
| CFSQENIEEMARVILYL [SIN4] | 2.47 ± 0.083 | 2.76 ± 0.14 | 2.79 ± 0.095 | 2.76 ± 0.054 |
| SVAEVFQKAQGSYAGHR [YCG1] | 1.9 ± 0.11 | 1.38 ± 0.18 | 1.65 ± 0.24 | 1.5 ± 0.072 |
| KLREKVNDVELAFKKNE [MTW1] | 3.1 ± 0.13 | 3.02 ± 0.13 | 3 ± 0.15 | 3.06 ± 0.21 |
| KLFTTNELMRWPIVQKT [RPN5] | 1.79 ± 0.096 | 1.77 ± 0.078 |  | 1.48 ± 0.044 |
| LSLKRTLTDILEDELYH [RPN4] | 3.11 ± 0.1 | 3.52 ± 0.11 | 3.47 ± 0.11 | 3.15 ± 0.11 |
| IYEEVRAVLKSFLESVI [HHF1] | 3 ± 0.21 | 3.13 ± 0.15 | 2.26 ± 0.15 | 2.66 ± 0.097 |
| KTESQDVETRVQNLEQT [DPB4] | 3.49 ± 0.091 | 3.32 ± 0.065 | 3.2 ± 0.047 | 3.24 ± 0.048 |
| DLVIVDENELKKSEEKL [MTW1] | 3.51 ± 0.19 |  |  |  |
| NYYSNKSNSTGNISSST [REC8] | 2.79 ± 0.1 | 3.02 ± 0.099 | 2.85 ± 0.059 | 3.09 ± 0.064 |
| LTSSKSVIVSQFCAFDS [SIN4] | 2 ± 0.066 | 2.14 ± 0.06 | 1.98 ± 0.1 | 1.64 ± 0.066 |
| SYFYRRIHVNPSYYGVR [BRR2] | 1.5 ± 0.064 | 1.85 ± 0.057 | 1.61 ± 0.07 | 1.76 ± 0.029 |
| TREKVLEDKLRAVLTPL [RRP46] | 2.89 ± 0.17 | 3.05 ± 0.11 | 2.91 ± 0.19 | 2.82 ± 0.11 |
| FSHLAGGKIINKLGNDP [BRR2] | 2.94 ± 0.19 | 3.1 ± 0.19 | 2.91 ± 0.085 | 3.02 ± 0.077 |
| ASFGKNLQIRQLFNWCL [DSN1] | 1.2 ± 0.064 | 1.44 ± 0.051 | 1.29 ± 0.15 | 2.33 ± 0.12 |
| NYEIVFDTVSNKLFTEP [YMR129W/POM152] | 2.97 ± 0.055 | 3.02 ± 0.06 | 2.88 ± 0.055 | 3.03 ± 0.032 |
| KEHAPYTDELEEDVYLD [FAS2] |  | 3.48 ± 0.27 |  | 3.04 ± 0.26 |

| Sequence | protein stability index (doa10∆) | protein stability index (pdr5∆) | protein stability index (san1∆) | protein stability index (ubr1∆) |
| --- | --- | --- | --- | --- |
| RVSHSDTNSSKPKNTKE [SIR4] |  | 3.08 ± 0.26 |  |  |
| NDTISEDILQGIFNLLN [NUT1] | 2.38 ± 0.066 | 2.32 ± 0.057 | 2.13 ± 0.12 | 2.6 ± 0.088 |
| FKERQMMVSYPKIDEDD [AAR2] | 3.28 ± 0.061 | 3.2 ± 0.055 | 3.19 ± 0.045 | 3.35 ± 0.043 |
| SVFNAELLKLLNDEYNY [YCS4] | 1.76 ± 0.053 | 2.31 ± 0.062 | 1.95 ± 0.095 | 2.47 ± 0.04 |
| MALKKNTHNKSTKRVTK [POP7] | 2.71 ± 0.1 | 2.73 ± 0.11 | 2.82 ± 0.053 | 2.84 ± 0.06 |
| DLCDVVESKFTEKIKSM [RPC19] | 3.43 ± 0.2 | 2.9 ± 0.11 | 3.33 ± 0.1 | 3.44 ± 0.077 |
| NIPRRELKINLPLTEHK [SRB4] | 2.93 ± 0.094 | 2.66 ± 0.072 | 3.23 ± 0.058 | 3.03 ± 0.12 |
| TLLWNKNDKLIKIEDFV [SNF5] | 1.8 ± 0.081 | 1.74 ± 0.066 | 1.55 ± 0.095 | 1.83 ± 0.036 |
| HGKASRQQYYSGVQVGG [SNF6] | 2.43 ± 0.061 | 2.8 ± 0.063 | 2.61 ± 0.052 | 2.21 ± 0.05 |
| SQQAGLDPYERAIYSYL [YDL116W/NUP84] | 2.81 ± 0.12 | 3.19 ± 0.083 |  | 2.83 ± 0.099 |
| VTNDDKSDDDDHTVDEI [SRB8] | 2.67 ± 0.077 | 2.8 ± 0.085 | 3.07 ± 0.094 | 3.01 ± 0.045 |
| LNDRKVLFAAYKVEHPF [RPB11] | 1.72 ± 0.055 | 2.23 ± 0.058 | 2.03 ± 0.084 | 2.27 ± 0.051 |
| FYMKKDAVEGVSECIIL [RPO31] |  | 3.07 ± 0.29 | 2.86 ± 0.14 |  |
| QGDEALSVDDIRGAVGN [RTT102] | 3.35 ± 0.096 | 3.49 ± 0.12 | 3.24 ± 0.059 | 3.41 ± 0.085 |
| KKGESEKDASGKPSFVF [YOR098C/NUP1] | 2.19 ± 0.066 | 2.32 ± 0.1 | 2.32 ± 0.15 | 2.23 ± 0.073 |
| TQTFNGSIFTHETTFMT [YML031W/NDC1] | 2.86 ± 0.063 | 2.79 ± 0.066 | 2.84 ± 0.035 | 2.89 ± 0.047 |
| WPTTHKYPLGHFVRDLG [DIS3] | 2.46 ± 0.063 | 2.58 ± 0.086 | 3.07 ± 0.08 | 2.49 ± 0.11 |
| HKTFLVANVKDLETLTM [RPL32] |  | 3.39 ± 0.26 | 3.22 ± 0.09 | 2.83 ± 0.17 |
| NKRLSRGKKGLKKKVVD [RPS1B] |  | 3.44 ± 0.15 | 2.75 ± 0.24 | 3.38 ± 0.14 |
| VTAEDFKQAKERVMKNK [RPT2] | 3.69 ± 0.23 | 3.52 ± 0.12 | 3.52 ± 0.11 | 3.42 ± 0.11 |
| RAPQQSVLQLFQSVQLN [SMC2] | 2 ± 0.05 | 1.98 ± 0.044 | 2.24 ± 0.051 | 1.91 ± 0.034 |
| NRVPDGFQDRSLPHFPK [RPO31] | 3.29 ± 0.16 | 2.86 ± 0.15 | 3.02 ± 0.11 | 3.6 ± 0.2 |
| GGLSGEESIKIYPLIKP [UBP6] | 2.48 ± 0.12 | 2.68 ± 0.076 | 1.88 ± 0.15 | 2.16 ± 0.09 |
| TAVSFVSAAEDESLIRE [PRP28] | 2.77 ± 0.093 | 3.27 ± 0.15 | 3.04 ± 0.16 | 2.2 ± 0.15 |
| LVGRLRKCETQKQWDDI [YCS4] | 2.21 ± 0.069 | 1.74 ± 0.057 | 1.53 ± 0.15 | 1.48 ± 0.072 |
| TKLDQVWGSETVASSKV [RPL4A] | 2.72 ± 0.075 | 3 ± 0.1 | 2.84 ± 0.05 | 2.98 ± 0.044 |
